Laboratory results published in publication PMC3002392.

Molecular target: Na+,K+-ATPase α-subunit (endogenous, MDCK cells) (dog (endogenous in MDCK)) (UniProt P50997)
Experiment: co-IP

## AS160 (endogenous, MDCK cells) (natural protein)
  fold increase of co-precipitated AS160 with 40 uM Compound C against vehicle: 7 fold
